Numbering of substitutions follows the chain as printed.

The target in assay [1] is T1, hB7-H3 (ELISA antigen of Tables 17 and 20) (human, UniProt Q5ZPR3 29-466, limits assumed).
T1 sequence: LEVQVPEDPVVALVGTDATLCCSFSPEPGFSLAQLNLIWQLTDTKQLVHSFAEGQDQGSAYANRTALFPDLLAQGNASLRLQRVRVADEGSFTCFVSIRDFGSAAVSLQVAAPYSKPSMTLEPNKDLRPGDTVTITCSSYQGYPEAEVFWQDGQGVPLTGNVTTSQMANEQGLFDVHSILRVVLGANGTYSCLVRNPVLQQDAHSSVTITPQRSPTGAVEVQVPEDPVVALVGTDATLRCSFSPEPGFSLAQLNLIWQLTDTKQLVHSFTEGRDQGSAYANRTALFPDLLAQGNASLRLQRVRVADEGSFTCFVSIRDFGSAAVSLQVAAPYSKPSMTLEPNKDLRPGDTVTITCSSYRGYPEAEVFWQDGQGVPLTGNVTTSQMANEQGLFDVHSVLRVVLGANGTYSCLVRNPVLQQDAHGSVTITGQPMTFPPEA
Briefly: ELISA. For orientation: ELISA stands for enzyme-linked immunosorbent assay.

Assay [2] deals with T2, Human full length B7-H3 (human, UniProt Q5ZPR3 29-534).
T2 construct: On 3T12 fibroblasts expressing full length human B7-H3 or on NCI-H1650 cells; signal peptide residues 1-28 stated; also called huB7-H3; CD276
T2 sequence: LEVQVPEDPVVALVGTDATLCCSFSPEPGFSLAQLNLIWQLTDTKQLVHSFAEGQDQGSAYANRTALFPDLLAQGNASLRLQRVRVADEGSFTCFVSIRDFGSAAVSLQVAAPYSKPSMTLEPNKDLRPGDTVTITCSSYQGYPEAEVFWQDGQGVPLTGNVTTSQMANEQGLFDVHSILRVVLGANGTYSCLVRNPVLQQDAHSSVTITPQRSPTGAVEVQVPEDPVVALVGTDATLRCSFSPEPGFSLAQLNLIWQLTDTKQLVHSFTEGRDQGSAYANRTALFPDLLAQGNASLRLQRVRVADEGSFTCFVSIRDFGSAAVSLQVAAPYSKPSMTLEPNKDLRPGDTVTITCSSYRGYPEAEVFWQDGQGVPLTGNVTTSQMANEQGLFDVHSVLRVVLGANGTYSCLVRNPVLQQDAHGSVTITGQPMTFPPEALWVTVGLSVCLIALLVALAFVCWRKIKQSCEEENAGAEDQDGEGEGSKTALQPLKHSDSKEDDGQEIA
The experiment in a line: FACS (Example 6 method). As to the method:
(§1) Cells were harvested from flasks when approximately 80% confluent using Gibco® Cell Dissociation Buffer. Cells were washed once in PBS/1% FBS (FACS buffer) then resuspended at 2.5×10⁶ cells/mL in FACS buffer. 100 μL of cells/well were added to a round bottom 96-well plate. 10 μL of a 10× concentration of mAb/ADC (final concentrations are indicated the figures). Wells were washed twice with FACS buffer and resuspended in 50 μL of secondary Ab (AlexaFluor 488) diluted in FACS buffer. The plate was incubated at 4° C. for one hour and washed twice with FACS buffer. Cells were resuspended in 100 μL of PBS/1% formaldehyde and analyzed on a Becton Dickinson LSRII flow cytometer. Data was analyzed using WinList flow cytometry analysis software.
(§2) Nine huAb13 variants described in Examples 17 and 18 were generated and tested for binding to B7-H3 by FACS (according to methods described in Example 6).

In assay [3] the target is T3, Cynomolgous B7-H3 on cells (cynomolgus).
T3 construct: whole, on cells; also called cyB7-H3; cyno B7-H3
The experiment in a line: FACS (Example 6 method). As to the method: as §1, §2

Assay [4] has as its target T2, Human full length B7-H3. The experiment in a line: FACS, cell surface human B7-H3 (as Example 6). How it is done: as §1
Nine anti-B7-H3 chimeric antibodies were conjugated to the Bcl-xL inhibiting (Bcl-xLi) synthon CZ (Example 2.1) using conjugation Method A described below. The resulting ADCs (anti-B7-H3 antibodies conjugated to synthon CZ) were tested for binding to cell surface human B7-H3 by FACS (as described in Example 6) and for cell cytotoxicity in cell lines expressing B7-H3. […] Table 6 provides cell surface binding and cytotoxicity activity of anti-B7-H3 chimera ADCs against breast cancer cell HCC38 expressing human B7-H3.
(In flow cytometry, cells or beads pass a laser one at a time.)

The target of assay [5] is T2, Human full length B7-H3. Briefly: cell-based or functional assay.
Assay [6] deals with T2, Human full length B7-H3. Briefly: FACS, 3T12 transfectants.

B1: chAb13-CZ (antibody, IgG1, V domains shown)
VH: DVQLQESGPDLVKPSQSLSLTCTVTGYSITSGYSWHWIRQFPGNKLEWMGYIHSSGSTNYNPSLKSRISINRDTSKNQFFLQLNSVTTEDTATYYCAGYDDYFEYWGQGTTLTVSS
VL: DIVMTQSQKFMSTSVGDRVSVTCKASQNVGFNVAWYQQKPGQSPKALIYSASYRYSGVPDRFTGSGSGTDFTLTISNVQSEDLAEYFCQQYNSYPFTFGSGTKLEIK
modifications: synthon CZ on reduced interchain Cys
A word on the EC50: it is the concentration that produces a half-maximal response. A higher EC50 goes with a less potent agent. On to B1, for which the concentration giving a half-maximal response (EC50) in assay [1] came out at 0.26 nM; in the assay with Human full length B7-H3 [2] it was 6.27 nM; in assay [3], 18.4 nM; in the assay with Human full length B7-H3 [4], 1.49 nM.

B2: huAb13v1-CZ (antibody, human IgG1, kappa, L234A L235A, V domains shown)
VH: EVQLQESGPGLVKPSETLSLTCAVTGYSITSGYSWHWIRQFPGNGLEWMGYIHSSGSTNYNPSLKSRISISRDTSKNQFFLKLSSVTAADTAVYYCAGYDDYFEYWGQGTTVTVSS
VL: DIQMTQSPSSLSASVGDRVTITCKASQNVGFNVAWYQQKPGKSPKALIYSASYRYSGVPSRFSGSGSGTDFTLTISSLQPEDFAEYFCQQYNWYPFTFGQGTKLEIKR
modifications: synthon CZ on reduced interchain Cys
notes: ADC, DAR 4.0
Turning to B2, the EC50 in assay [1] is 0.12 nM; in assay [3] it was 10 nM. The “EC50 nM H1650 (tumor cell cytotoxicity)” value in the assay with Human full length B7-H3 [5] stood at 0.18 nM.

B3: huAb13v5-CZ (antibody, V domains shown)
VH: B2 VH
VL: DIQMTQSPSSLSASVGDRVTITCKASQNVGFNVAWYQQKPGKAPKLLIYSASYRYSGVPSRFSGSGSGTDFTLTISSLQPEDFATYYCQQYNWYPFTFGQGTKLEIK
modifications: synthon CZ on reduced interchain Cys
notes: ADC, DAR 3.4
B3: the concentration giving a half-maximal response (EC50) in assay [1] amounted to 0.19 nM; with Human full length B7-H3 [2], 5.21 nM; in assay [3] it was 10.6 nM.

B4: huAb13v6-CZ (antibody, V domains shown)
VH: B2 VH
VL: B3 VL with Y87F
modifications: synthon CZ on reduced interchain Cys
notes: ADC, DAR 3.6
On to B4, for which the figures for the EC50 (in assay [1]; with Human full length B7-H3 [2]; in assay [3]) were 0.14 nM, 5.83 nM and 12.9 nM, respectively.

B5: huAb3v2.9 (antibody, V domains shown)
VH: EVQLVQSGAEVKKPGSSVKVSCKASGYTFSSYWMHWVRQAPGQGLEWIGLIHPISGSTNYNEMFKNRATLTVDRSTSTAYMELSSLRSEDTAVYYCAGGGRLYFDYWGQGTTVTVSS
VL: DIVMTQSPLSLPVTPGEPASISCRSSQSLVHSNQDTYLRWYLQKPGQSPQLLIYKVSNRFSGVPDRFSGSGSGTDFTLKISRVEAEDVGVYYCSQSTHVPYTFGGGTKVEIK
notes: humanized IgG
With B5, the binding result with Human full length B7-H3 [6] is given as “binds”.

Values taken from patent US20170355769A1 (AbbVie / Abbott, published 2017).
